Numbering of substitutions follows the chain as printed.
T1: BoNT/B light chain (recombinant) (Clostridium botulinum, UniProt P10844 1-441)
T1 sequence: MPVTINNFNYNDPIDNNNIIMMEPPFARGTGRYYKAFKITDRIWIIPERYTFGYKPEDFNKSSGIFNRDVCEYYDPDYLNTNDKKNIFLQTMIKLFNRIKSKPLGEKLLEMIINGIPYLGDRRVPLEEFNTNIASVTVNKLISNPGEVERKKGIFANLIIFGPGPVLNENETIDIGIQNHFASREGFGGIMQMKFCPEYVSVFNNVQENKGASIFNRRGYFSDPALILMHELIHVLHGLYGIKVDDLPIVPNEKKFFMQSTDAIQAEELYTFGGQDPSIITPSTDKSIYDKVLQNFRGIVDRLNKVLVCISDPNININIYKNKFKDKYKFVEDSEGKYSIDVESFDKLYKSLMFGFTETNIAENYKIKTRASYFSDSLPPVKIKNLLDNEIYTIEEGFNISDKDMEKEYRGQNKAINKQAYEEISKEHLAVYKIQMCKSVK

T2: BoNT/F1 (proteolytic BoNT/F) (Clostridium botulinum, UniProt A7GBG3 1-1278)
T2 sequence: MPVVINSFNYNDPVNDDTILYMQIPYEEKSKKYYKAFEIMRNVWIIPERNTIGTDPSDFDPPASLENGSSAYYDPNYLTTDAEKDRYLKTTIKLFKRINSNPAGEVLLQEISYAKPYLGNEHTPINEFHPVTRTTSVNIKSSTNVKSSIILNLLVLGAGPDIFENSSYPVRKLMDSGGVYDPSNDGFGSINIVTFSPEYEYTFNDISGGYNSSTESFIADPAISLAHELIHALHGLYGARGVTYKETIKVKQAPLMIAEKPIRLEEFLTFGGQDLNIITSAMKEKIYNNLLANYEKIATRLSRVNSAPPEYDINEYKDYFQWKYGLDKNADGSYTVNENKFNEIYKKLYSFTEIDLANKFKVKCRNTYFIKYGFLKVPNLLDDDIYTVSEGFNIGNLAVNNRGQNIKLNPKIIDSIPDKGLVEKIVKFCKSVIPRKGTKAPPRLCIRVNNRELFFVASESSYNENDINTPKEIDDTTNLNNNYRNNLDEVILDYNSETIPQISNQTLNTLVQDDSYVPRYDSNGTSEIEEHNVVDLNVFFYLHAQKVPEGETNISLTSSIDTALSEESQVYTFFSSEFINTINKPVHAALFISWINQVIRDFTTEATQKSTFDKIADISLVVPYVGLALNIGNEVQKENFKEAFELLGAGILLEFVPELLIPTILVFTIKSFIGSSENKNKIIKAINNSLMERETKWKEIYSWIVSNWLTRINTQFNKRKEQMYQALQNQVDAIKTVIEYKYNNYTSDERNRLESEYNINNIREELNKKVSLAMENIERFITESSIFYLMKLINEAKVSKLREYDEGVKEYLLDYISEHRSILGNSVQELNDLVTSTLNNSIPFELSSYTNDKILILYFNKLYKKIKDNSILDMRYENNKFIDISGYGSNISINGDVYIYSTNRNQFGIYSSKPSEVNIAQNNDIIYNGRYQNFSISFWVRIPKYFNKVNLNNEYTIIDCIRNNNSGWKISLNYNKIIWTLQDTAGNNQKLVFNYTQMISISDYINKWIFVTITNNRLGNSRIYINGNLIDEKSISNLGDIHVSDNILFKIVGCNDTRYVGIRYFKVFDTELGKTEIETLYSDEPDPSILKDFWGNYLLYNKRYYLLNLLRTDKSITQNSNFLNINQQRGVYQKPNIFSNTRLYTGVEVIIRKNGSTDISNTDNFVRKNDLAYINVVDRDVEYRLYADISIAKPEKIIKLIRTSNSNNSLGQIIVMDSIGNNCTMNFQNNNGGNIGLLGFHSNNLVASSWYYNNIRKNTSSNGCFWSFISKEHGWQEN

B1: 31A5 scFv (scFv)
scFv: DVQLQESGPELVKPGASVKISCKASGYSFTDYNMNWVKQSNGKSLEWIGVINPNYGTTSYNQKFKGKATLTVDQSSSTAYMQLNSLTSEDSAVYYCARSGGTGYYFDYWGQGTTLTVSSVDLKSGGSTSGSGKPGSGEGSSGSARQIVLTQSPAILSASPGEKVTMTCRASSSVSYMHWYQQKPGSSPKAWIYATSNLASGVPARFSGSGSGTSYSLTISRVEAEDAATYYCQQWSSYPPTFGSGTKLEIK
notes: mouse
B2: 31A5.1 scFv (scFv)
scFv: B1 scFv with T165A, A190L, W191L, A194D, A204V, V222M, S244G
notes: mouse
B3: 31H3 scFv (scFv)
scFv: EVQLQQSGAELVRPGASVKMSCKASGYPFTIYWITWVKQRPGQGLEWIGEIYPGSGFTKYNEKFRSKATLTVDTSSSTAYMQLSSLTSEDSAVYYCALYGSNFDYWGQGTTLTVSSVDLKSGGSTSGSGKPGSGEGSSGSARDIVMTQSPAIMSASPGEKVTMPCSASSSVSYMHWYQQKPGTSPKRWIYDTSKLASGVPARFSGSGSGTSYSLTISRVEAEDAATYYCQQWSSHPPTFGAGTRLEIK
notes: mouse
B4: 31E2 scFv (scFv)
scFv: EVKLVESGAELVRPGASVKLSCTASGFNIKDDYVHWVKQRPEQGLEWIGRIDPEDGETKYAPKFQGKATITADTSSNTAYLQLSSLTSEDTAVYYCALWSNWYFDVWGAGTTVTVSSVDLKSGGSTSGSGKPGSGEGSSGSAREIVLTQSPAIMSASPGEKVTMTCRASSSVSYMHWYQQKPGSSPKPWIYATSNLASGVPARFSGSGSGTSYSLTISRVEAEDAATYYCQQWTSNPPTFGGGTKLEIK
notes: mouse
B5: 31E2.20 scFv (scFv)
scFv: EVKLVESGAELVRPGASVKLSCTASGFNIKDDYVHWVKQRPEQGLEWIGRIDPEDGETKYAPKFQGKATITADTSSNTAYLQLSSLTSEDTAVYYCALWSNWYFDVWGAGTTVTVSAVDLKSGGSTSGSGKPGSGEGSSGSAREIVLTQSPEILSASPGEKVTMTCRASSSVSYMHWYQQKPGSSPKPWIYATSNLASGVPARFSGSGSGTSYSLTISSMEAEDAATYYCQQFHNYPPTFGAGTKLELK
notes: mouse
B6: 31G2 scFv (scFv)
scFv: QVQLQQSGAELVKPGASVKLSCTASGFNIKDTYMHWVKQRPEQGLEWIGRIDPEDGETKYAPKFQGKATITADTSSNTAYLQLSSLTSEDTAVYYCARWLLYYYAMDYWGQGTSVTVSAVDLKSGGSTSGSGKPGSGEGSSGSARQIVLTQSPALMAASPGEKVTITCSVSSSISSSNLHWYQQKSETSPKPWIYGTSNLASGVPARFSGSGSGTSYSLTISRVEAEDAATYYCHQRSSYPLTFGAGTKLEIK
notes: mouse
B7: 39D1.1 scFv (scFv, V domains shown)
VH: EVQLVQSGGNLVQPGGSLRLSCAATGPIGSHWMTWVRQAPGQGLEWVANINLDGTEKFYVDSVKGRFTVSRDNRKSSVFLQMNNLRVDDTAVYYCARLQWGGYDGWLSPWGQGTLVTVSS
VL: DIVMTQSPPSLSASVGDRVSLTCRASEYIGTSLNWYQQKPGKAPKLLIYAASALHSGVPSRFSGSGSGTDFTLTISGLQPEDFATYYCQQANDLPLTFGGGTKLEIK
B8: 41B7 scFv (scFv, V domains shown)
VH: B7 VH
VL: B7 VL with K42T
B9: 41A4 scFv (scFv, V domains shown)
VH: B7 VH
VL: B7 VL with A91T
B10: 10C9 scFv (scFv)
scFv: QVQLQQSGAELVRPGTSVKLSCKASGYTFTSHWMHWVKQRPGQGLEWIGVIDPSDSYTNYNQKFKGKATLTVDTSSSTAYMQLSSLTSEDSAVYYCAIRRNYGMDYWGQGTSVTVSSVDLKSGGSTSGSGKPGSGEGSSGSARDIVMTQSPTSLAVSLGQRATISCKASQSVDYDGDSFMNWYQQKPGQPPKLLIYGASNLESGIPARFSGSGSRTDFTLTINPVEADDVATYYCQQSNEDPLTFGAGTKLELK
notes: mouse
B11: 1C7 scFv (scFv)
scFv: EVQLQQSGAELVRPGASVKMSCKASGYTFTSYNMHWVKQTPRQGLEWIGAIYPGNGDTSYNQKFKGKATLTVDKSSSTAYMQLSSLTSEDSAVYFCARTAGFYFDYWGQGTTLTVSSVDLKSGGSTSGSGKPGSGEGSSGSARDIVMTQSPAIMSASPGEKVTMTCSASSSVSYMYWYQQKPGSSPRLLIYYTSNLAPGVPARFSGSGSGNSYSLTISSMEGEDAATYYCQQFTSSPYTFGGGTKLEIK
notes: mouse
B12: 34E8B12 scFv (scFv)
scFv: QVQLVESGPDLVKPSQSLSLTCTVTGYSITSGYSWHWIRQFPGNKLEWMGYIHYSGSTNYNPSLKSRISITRDTSKNQFFLQLNSVTTEDTATYYCAVYYDYDGDYFDYWGQGTTLTVSSVDLKSGGSTSGSGKPGSGEGSSGSARDVVMTQSPAIMSASPGEKVTMTCSASSSVSYMYWFQQKPGSSPKPWIYRTSNLAPGVPARFSGSGSGTSYSLTISSMEAEDAATYYCQQWSSNPPWTFGGGTKLEIK
notes: mouse
B13: 18F2 scFv (scFv)
scFv: EVQLQQSGPELMKPGASVKISCKASGYAFSRSWMNWVKQRPGKGLEWIGRIYPGDGDTNYNGKFKDKASLTADTSSSTAYMQLSSLTSEDSAVYFCTKSEGYYHNLGAYWGQGTTVTVSSVDLKSGGSTSGSGKPGSGEGSSGSAREIVLTQSPAIMSASPGQKVTITCSASSSVSYMHWYQQKSGTSPKRWIYDTSKLASGVPARFSGSGSGTSYSLIISSMEAEDAATYYCQQWRSNPPTFGGGTRLEIK
notes: mouse
B14: 31C3 scFv (scFv)
scFv: EVKLVETGPELKKPGETVKISCKASGYTFTNYGMNWVKQAPGKGLKWMGWINTNTGEPTYAEEFKGRFAFSLETSASTAFLQINNLKNEDTATYFCARGPIYYGTSYRFFDVWGTGTSVTVSSVDLKSGGSTSGSGKPGSGEGSSGSARQIVLTQSPAIMSASPGEKVTMTCRASSSVSSSYLHWYQQKPGSSPKLWIYSTSNLASGVPARFSGSGSGTSYSLTISRMEAEDAATYFCQQWSSFPPTFGGGTKLELK
notes: mouse
B15: 37B4 scFv (scFv, V domains shown)
VH: QVQLVQSGAEVKKPGSSVKVSCKASGGTFSSYAISWVRQAPGQGLEWMGGIIPIFGTANYAQKFQGRVTITTDTSTSTAYMELRSLRSDDTAVYYCARDEDYYDSSGYYDYWGQGTLVTVSS
VL: QTVVTQEPSLTVAPGGTVTLTCGSSAGAVTTDHYPSWFQKKPGQAPTTIIYDTTNKHSMTPGPARFSGSLLGGKAALTLSGAQPEDEAEYYCFLSYRGSRPVFGGGTKVTVL
B16: 38D11 scFv (scFv, V domains shown)
VH: QVQLQESGGGVVQPGRSLRLSCAASGFTFSSYGMHWVRQAPGKGLEWVAVIWYDGSNKYYADSVKGRFTISRDNSKNTLYLQMNSLRAEDTAVYYCARDKGWELMTNTDAFDIWGQGTLVTVSS
VL: not shown

Assays:
Experiment in all cases: yeast scFv FACS
[1] = target: T1, BoNT/B light chain (recombinant)
[2] = target: T2, BoNT/F1 (proteolytic BoNT/F)
[3] = target: BoNT/A light chain (recombinant) (Clostridium botulinum, UniProt P0DPI0 1-448)
[4] = target: BoNT/A1 holotoxin (Hall hyper) (Clostridium botulinum, UniProt P0DPI0 2-1296)
[5] = target: BoNT/A2 holotoxin (FRI-H1A2) (Clostridium botulinum, UniProt Q45894 2-1296)
BoNT/A2 holotoxin (FRI-H1A2), sequence (Q45894 2-1296): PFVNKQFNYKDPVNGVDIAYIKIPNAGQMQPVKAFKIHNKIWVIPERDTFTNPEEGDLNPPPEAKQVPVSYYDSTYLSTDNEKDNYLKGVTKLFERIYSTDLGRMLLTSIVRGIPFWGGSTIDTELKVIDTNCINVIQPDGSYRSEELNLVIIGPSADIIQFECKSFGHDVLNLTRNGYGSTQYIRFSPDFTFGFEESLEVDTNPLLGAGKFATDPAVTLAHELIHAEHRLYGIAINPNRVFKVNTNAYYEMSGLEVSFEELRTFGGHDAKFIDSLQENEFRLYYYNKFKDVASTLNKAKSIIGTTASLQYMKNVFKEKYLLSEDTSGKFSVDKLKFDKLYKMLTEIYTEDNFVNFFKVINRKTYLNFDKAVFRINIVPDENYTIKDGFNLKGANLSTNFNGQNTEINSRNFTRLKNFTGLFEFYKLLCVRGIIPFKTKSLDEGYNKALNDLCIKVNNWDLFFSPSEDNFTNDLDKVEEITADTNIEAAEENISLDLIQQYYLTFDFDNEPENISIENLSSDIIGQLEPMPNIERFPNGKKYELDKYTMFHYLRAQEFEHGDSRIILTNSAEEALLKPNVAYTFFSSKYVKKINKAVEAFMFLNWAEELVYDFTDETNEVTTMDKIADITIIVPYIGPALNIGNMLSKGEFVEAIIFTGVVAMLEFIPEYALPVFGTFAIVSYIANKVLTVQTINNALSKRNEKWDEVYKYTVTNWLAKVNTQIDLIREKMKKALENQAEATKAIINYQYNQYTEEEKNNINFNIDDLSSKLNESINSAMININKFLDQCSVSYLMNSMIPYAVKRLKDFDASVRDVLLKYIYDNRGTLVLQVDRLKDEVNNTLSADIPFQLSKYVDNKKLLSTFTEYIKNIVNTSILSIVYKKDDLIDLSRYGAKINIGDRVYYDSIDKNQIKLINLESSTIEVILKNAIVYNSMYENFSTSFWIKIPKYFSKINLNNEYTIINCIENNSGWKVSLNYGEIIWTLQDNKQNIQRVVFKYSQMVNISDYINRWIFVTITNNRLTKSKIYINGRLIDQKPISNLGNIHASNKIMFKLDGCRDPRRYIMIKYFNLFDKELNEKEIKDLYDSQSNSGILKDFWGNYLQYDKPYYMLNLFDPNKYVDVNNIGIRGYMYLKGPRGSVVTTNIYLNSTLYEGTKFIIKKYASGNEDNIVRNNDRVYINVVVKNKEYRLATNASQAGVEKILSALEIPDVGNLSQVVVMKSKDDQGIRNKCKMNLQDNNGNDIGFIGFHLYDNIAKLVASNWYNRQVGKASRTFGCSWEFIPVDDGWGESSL

Row | Binder | Kd [1] [nM] | Kd [2] [nM] | also measured
1 | B1 | 9.31 | – | –
2 | B2 | 1.75 | – | –
3 | B3 | 1.28 | – | –
4 | B4 | 17.1 | – | –
5 | B5 | 1.96 | – | –
6 | B6 | 3.34 | – | –
7 | B7 | – | 0.747 | –
8 | B8 | – | 0.892 | –
9 | B9 | – | 0.533 | –
10 | B10 | – | – | Kd [3]: 0.36 nM; Kd [4]: > 500 nM; Kd [5]: 112 nM
11 | B11 | – | – | Kd [3]: 35.3 nM; binding result [4]: no binding; binding result [5]: no binding
12 | B12 | 2.44 | – | –
13 | B13 | 1.05 | – | –
14 | B14 | 5.27 | – | –
15 | B15 | – | 10.1 | –
16 | B16 | – | 29.1 | –

— patent US20220089784A1 (University of California, published 2022)
